Drawing on article PMC6554949, “Arabidopsis thaliana organelles mimic the T7 phage DNA replisome with specific interactions between Twinkle protein and DNA polymerases Pol1A and Pol1B” (BMC Plant Biology, 2019), this text covers Kd for six molecules.

For experiment [1], the target named is T7 primase-helicase (Escherichia phage T7) (UniProt P03692). Particulars: cited from earlier work.
The target in the next experiment is DnaE (Bacillus subtilis) (UniProt O34623). Particulars: cited from earlier work.
DnaE (Bacillus subtilis), sequence (O34623 whole entry): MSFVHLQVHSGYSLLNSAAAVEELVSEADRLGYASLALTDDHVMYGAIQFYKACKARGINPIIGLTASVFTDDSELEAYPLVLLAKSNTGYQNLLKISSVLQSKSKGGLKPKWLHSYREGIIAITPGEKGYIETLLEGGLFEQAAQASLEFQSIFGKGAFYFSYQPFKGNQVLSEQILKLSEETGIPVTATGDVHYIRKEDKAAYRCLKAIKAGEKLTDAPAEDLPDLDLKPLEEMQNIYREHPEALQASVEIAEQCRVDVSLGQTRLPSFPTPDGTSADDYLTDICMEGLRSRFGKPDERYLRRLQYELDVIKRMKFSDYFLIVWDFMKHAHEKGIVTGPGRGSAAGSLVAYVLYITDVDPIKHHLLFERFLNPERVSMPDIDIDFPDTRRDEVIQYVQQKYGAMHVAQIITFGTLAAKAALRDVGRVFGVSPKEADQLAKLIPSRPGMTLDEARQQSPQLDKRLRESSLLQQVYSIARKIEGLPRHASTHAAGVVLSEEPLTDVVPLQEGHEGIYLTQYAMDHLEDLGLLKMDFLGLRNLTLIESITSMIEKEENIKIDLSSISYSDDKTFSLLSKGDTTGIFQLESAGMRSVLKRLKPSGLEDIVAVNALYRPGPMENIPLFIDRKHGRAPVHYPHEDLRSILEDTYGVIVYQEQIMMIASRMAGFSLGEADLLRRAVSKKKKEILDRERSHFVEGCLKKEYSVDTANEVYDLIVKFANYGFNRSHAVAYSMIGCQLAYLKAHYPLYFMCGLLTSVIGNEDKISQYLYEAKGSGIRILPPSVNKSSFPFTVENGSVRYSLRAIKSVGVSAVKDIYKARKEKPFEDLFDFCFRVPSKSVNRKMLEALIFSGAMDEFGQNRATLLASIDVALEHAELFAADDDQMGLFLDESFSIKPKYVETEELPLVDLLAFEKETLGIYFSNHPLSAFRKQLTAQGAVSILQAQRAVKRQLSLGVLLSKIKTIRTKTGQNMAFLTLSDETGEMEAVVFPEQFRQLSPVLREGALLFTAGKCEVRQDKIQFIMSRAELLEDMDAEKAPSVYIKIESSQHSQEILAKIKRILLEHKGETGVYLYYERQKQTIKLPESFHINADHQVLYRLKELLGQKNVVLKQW
In experiment [2] the target is T1, polyhistidine-tagged Pol1B (recombinant, fluorescently labelled) (Arabidopsis thaliana, UniProt Q84ND9 56-1034, fluorescent dye RED-tris-NTA (Monolith His-Tag Labeling Kit) on the His tag).
T1 construct: DNA polymerase 1B, Arabidopsis thaliana, At3g20540; also called his-tagged Pol1B; DNA polymerase 1B; source: recombinant, purified
T1 sequence (looked up): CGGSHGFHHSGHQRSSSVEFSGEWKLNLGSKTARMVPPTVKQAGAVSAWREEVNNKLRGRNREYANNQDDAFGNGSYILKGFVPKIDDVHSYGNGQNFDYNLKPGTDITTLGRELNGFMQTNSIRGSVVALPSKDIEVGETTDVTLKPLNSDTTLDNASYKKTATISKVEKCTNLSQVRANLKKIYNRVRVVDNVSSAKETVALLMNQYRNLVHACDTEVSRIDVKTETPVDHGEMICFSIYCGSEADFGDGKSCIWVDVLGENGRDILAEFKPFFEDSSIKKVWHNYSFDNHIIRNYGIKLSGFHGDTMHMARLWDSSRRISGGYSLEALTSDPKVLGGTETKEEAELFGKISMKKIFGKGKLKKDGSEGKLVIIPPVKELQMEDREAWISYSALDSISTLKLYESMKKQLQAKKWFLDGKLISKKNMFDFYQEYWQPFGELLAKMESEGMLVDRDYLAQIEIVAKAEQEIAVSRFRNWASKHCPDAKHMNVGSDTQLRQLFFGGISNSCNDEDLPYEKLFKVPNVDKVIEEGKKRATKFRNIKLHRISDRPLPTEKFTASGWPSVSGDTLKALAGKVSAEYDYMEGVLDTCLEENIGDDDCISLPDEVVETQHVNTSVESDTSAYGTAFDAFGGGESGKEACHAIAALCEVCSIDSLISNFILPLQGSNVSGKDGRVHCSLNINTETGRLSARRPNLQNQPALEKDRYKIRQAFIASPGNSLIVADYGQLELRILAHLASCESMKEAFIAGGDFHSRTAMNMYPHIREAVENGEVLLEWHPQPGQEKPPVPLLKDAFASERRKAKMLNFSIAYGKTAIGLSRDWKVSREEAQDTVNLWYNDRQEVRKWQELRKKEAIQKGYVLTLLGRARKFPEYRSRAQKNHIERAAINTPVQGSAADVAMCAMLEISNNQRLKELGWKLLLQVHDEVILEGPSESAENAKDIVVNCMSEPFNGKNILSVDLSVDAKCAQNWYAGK
Nature of the experiment: MST; His-tagged Pol1B labelled with RED-tris-NTA, constant 20 nM (10 nM in the results text); ligands in 16 serial dilutions; PBS + 0.05% Tween; Monolith NT.115p, 10% LED power, 50% MST power, standard capillaries. Particulars: both partners purified.

T7 primase-helicase (Escherichia phage T7), sequence (P03692 whole entry): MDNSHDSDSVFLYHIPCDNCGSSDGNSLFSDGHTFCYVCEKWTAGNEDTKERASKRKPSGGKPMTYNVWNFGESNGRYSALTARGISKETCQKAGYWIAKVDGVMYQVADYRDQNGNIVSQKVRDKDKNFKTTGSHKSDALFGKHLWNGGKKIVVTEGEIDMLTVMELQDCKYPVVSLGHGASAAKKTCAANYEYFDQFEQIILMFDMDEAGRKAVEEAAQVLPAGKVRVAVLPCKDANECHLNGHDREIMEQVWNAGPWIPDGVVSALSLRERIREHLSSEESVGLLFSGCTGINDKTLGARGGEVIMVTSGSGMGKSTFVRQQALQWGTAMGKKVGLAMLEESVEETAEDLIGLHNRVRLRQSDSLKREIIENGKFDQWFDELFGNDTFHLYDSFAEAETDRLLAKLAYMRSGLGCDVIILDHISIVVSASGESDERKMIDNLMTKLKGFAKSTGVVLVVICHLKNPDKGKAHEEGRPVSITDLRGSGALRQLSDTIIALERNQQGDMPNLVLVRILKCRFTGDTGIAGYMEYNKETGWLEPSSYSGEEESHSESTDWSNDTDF

A word on the Kd: it is the free concentration of one partner at which half of the binding sites on the other are occupied at equilibrium, for simple one-to-one binding. Turning to T7 DNA polymerase (from UniProt P00581), the dissociation constant Kd in experiment [1] is 440 nM.

Turning to DnaG primase (from UniProt P05096), in the experiment with DnaE (Bacillus subtilis), the Kd was 750 nM.

B1: Twinkle zinc finger subdomain (residues 92-186) (domain or fragment, Arabidopsis thaliana, UniProt B5X582 92-186, looked up)
chain: TPVDTEVEADKRVVLSRLVTLRRKLAEQGVDAENCPPGQHSGLICPTCEGGNSGEKSLSLFIAPDGSSATWNCFRGKCGLKGGVRADGGLASADP
notes: Twinkle, Arabidopsis thaliana, At1g30680, zinc finger subdomain, residues 92-186; Tag removed with PreScission protease; also called Zn++ Finger domain; zf
Turning to B1, the Kd in experiment [2] was found to be 2170 nM.

B2: Twinkle helicase domain (401-709) (domain or fragment, Arabidopsis thaliana, UniProt B5X582 401-709, looked up)
chain: AILDAEPYPILGLFSFKDFFDEIDAYYDRTHGHEYGVSTGWKNLDNLYSVVPGELTVVTGIPNSGKSEWIDAMLCNLNHSVGWKFALCSMENKVRDHARKLLEKHIKKPFFDADYGRSVQRMSVEEKDEGKKWLNDTFYPIRCEMDSLPSIDWVLERAKAAVLRYGIRGLVIDPYNELDHQRTPRQTETEYVSQMLTKIKRFSQHHSCHVWFVAHPKQLQHWDGGAPNLYDISGSAHFINKCDNGIIVHRNRDENAGPLDLVQIGVRKVRNKVAGQIGDAYLCYDRTTGSYSDSPVTPGMPERRSPKRY
notes: Twinkle, Arabidopsis thaliana, At1g30680, helicase domain, residues 401-709; Tags of the pCri-1b vector removed with TEV protease; also called helicase module; source: cloned into pCri-1b, purified (potassium phosphate pH 7.0 buffer)
As to B2, in experiment [2], the Kd was 1970 nM.

B3: full-length Twinkle (recombinant, without histidine tag) (enzyme, Arabidopsis thaliana, UniProt B5X582 82-709, looked up)
chain: SSYNSIPRVPTPVDTEVEADKRVVLSRLVTLRRKLAEQGVDAENCPPGQHSGLICPTCEGGNSGEKSLSLFIAPDGSSATWNCFRGKCGLKGGVRADGGLASADPIEKVERKITVEGIELEPLCDEIQDYFAARAISRKTLERNRVMQKRIGDEIVIAFTYWQRGELVSCKYRSLTKMFFQERKTRRILYGLDDIEKTSEVIIVEGEIDKLAMEEAGFLNCVSVPDGAPAKVSSKEIPSEDKDTKYKFLWNCNDYLKKASRIVIATDGDGPGQAMAEEIARRLGKERCWRVKWPKKSEDEHFKDANEVLMSKGPHLLKEAILDAEPYPILGLFSFKDFFDEIDAYYDRTHGHEYGVSTGWKNLDNLYSVVPGELTVVTGIPNSGKSEWIDAMLCNLNHSVGWKFALCSMENKVRDHARKLLEKHIKKPFFDADYGRSVQRMSVEEKDEGKKWLNDTFYPIRCEMDSLPSIDWVLERAKAAVLRYGIRGLVIDPYNELDHQRTPRQTETEYVSQMLTKIKRFSQHHSCHVWFVAHPKQLQHWDGGAPNLYDISGSAHFINKCDNGIIVHRNRDENAGPLDLVQIGVRKVRNKVAGQIGDAYLCYDRTTGSYSDSPVTPGMPERRSPKRY
notes: Twinkle, Arabidopsis thaliana, At1g30680; called full-length in the results and legend; the methods name 'Twinkle lacking the first 91 codons' as the template of the domain constructs; Used without a histidine tag; It may in fact be the form lacking the first 91 residues (92-709); also called the full-length protein
B3: in experiment [2], the Kd came to 1260 nM.

B4: Twinkle primase domain (residues 92-410) (domain or fragment, Arabidopsis thaliana, UniProt B5X582 92-410, looked up)
chain: TPVDTEVEADKRVVLSRLVTLRRKLAEQGVDAENCPPGQHSGLICPTCEGGNSGEKSLSLFIAPDGSSATWNCFRGKCGLKGGVRADGGLASADPIEKVERKITVEGIELEPLCDEIQDYFAARAISRKTLERNRVMQKRIGDEIVIAFTYWQRGELVSCKYRSLTKMFFQERKTRRILYGLDDIEKTSEVIIVEGEIDKLAMEEAGFLNCVSVPDGAPAKVSSKEIPSEDKDTKYKFLWNCNDYLKKASRIVIATDGDGPGQAMAEEIARRLGKERCWRVKWPKKSEDEHFKDANEVLMSKGPHLLKEAILDAEPYPI
notes: Twinkle, Arabidopsis thaliana, At1g30680, primase domain, residues 92-410; Tag removed with PreScission protease; also called primase module
For the molecule B4, the equilibrium dissociation constant (Kd) in experiment [2] was determined as 810 nM.
